Assay results as given in patent US20120082667A1.

Target: A beta oligomer prepared from synthetic A beta1-40 (HCl form), 0.1 mg/ml in PBS, incubated at 37 degrees C for one hour (UniProt P05067)
Experiment: SPR, Biacore 3000, A beta1-40 oligomer on CM5 chip, antibody as analyte at five concentrations

Kd: 2.91 nM
koff: 0.000168 s⁻¹
kon: 57800 M⁻¹ s⁻¹
Substance: Anti-A beta antibody 6E10 (Covance Immuno-Technologies)
